Substitutions are numbered along the chain they refer to. In names and notes the source's numbering stands. Like-named read-outs stand apart in the source and are kept apart here. Values belong to the binder of their own block, whether it stands above or below them.
Tests used:
[1] = biological target: T1, recombinant soluble integrin αvβ3 (UniProt P06756 31-987; P05106 27-718); assay: SPR
[2] = biological target: T1, recombinant soluble integrin αvβ3; assay: SPR; remark: listed apart in the source
[3] = biological target: T1, recombinant soluble integrin αvβ3; assay: ELISA

T1 sequence (P06756 31-987, chain 1 of 2): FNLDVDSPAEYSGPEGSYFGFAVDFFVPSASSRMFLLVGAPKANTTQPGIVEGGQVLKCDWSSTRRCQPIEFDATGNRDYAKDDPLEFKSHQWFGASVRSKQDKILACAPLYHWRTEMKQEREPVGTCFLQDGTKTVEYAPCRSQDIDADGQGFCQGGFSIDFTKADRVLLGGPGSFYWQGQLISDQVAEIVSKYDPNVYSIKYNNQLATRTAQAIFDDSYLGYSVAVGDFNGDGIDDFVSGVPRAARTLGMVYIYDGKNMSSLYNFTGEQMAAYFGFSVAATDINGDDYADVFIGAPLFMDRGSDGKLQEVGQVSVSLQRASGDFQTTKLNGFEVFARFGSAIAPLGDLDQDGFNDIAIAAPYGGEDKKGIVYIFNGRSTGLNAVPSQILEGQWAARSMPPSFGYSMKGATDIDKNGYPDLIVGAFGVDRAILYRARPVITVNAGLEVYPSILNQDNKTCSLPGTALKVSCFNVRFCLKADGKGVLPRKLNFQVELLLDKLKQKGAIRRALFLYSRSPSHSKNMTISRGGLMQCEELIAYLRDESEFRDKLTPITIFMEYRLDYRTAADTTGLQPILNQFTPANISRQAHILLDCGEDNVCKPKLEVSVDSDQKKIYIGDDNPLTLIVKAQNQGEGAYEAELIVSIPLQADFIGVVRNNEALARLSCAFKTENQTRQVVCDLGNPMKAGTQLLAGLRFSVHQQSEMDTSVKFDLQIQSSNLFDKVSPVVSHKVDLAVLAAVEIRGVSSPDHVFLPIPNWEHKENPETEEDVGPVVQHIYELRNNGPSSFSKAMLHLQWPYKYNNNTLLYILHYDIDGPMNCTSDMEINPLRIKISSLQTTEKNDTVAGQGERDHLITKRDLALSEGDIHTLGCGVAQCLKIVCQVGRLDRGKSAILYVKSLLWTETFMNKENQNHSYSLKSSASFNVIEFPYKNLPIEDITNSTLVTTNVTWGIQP
T1 sequence (P05106 27-718, chain 2 of 2): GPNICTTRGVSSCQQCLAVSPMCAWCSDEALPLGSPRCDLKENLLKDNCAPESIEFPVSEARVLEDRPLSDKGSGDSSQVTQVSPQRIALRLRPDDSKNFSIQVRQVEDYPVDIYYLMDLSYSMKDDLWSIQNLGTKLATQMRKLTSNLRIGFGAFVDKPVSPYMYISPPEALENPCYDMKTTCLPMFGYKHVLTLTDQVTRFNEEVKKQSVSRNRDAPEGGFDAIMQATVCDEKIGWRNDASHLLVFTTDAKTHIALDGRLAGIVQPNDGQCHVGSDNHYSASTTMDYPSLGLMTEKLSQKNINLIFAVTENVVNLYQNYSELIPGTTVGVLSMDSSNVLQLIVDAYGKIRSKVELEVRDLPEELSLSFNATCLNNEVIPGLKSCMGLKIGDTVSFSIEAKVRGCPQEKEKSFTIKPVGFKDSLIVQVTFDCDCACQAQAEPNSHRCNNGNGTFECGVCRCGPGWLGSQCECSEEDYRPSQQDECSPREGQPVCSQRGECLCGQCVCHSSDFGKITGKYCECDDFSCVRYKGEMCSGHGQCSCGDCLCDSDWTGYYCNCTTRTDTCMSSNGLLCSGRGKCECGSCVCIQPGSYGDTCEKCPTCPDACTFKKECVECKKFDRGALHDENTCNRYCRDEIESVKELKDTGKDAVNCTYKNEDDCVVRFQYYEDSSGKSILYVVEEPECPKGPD

B1: chemokine domain of fractalkine (FKN-CD), wild type, 6His-tagged (domain or fragment, human)
chain: QHHGVTKCNITCSKMTSKIPVALLIHYQQNQASCGKRAIILETRQHRLFCADPKEQWVKDAMQHLDRQAAALTRNG
Kd [1]: 6.9 nM | Kd [2]: 11 nM

B4: FKN-CD Arg47 to Ala mutant (R47A) (domain or fragment, human)
chain: B1 chain with R47A
binding result [3]: binds

Next, values leading:

binding result [3]: binds
B2: FKN-CD Lys54/Lys59 to Ala mutant (K54A/K59A) (domain or fragment, human)
chain: B1 chain with K54A, K59A

binding result [3]: binds
B3: FKN-CD Lys54 to Ala mutant (K54A) (domain or fragment, human)
chain: B1 chain with K54A

Reference: publication PMC3518660 (Journal of immunology (Baltimore, Md. : 1950), 2012)
